Experimental data from US20130115589A1, “Pharmaceutical Composition for Treatment and Prevention of Herpes Virus Infections” (THE UNIVERSITY OF TOKYO, priority 2010, published 2013).

Molecular target: gB of HSV-1 (Human herpesvirus 1, UniProt P06436)
Details: 293T cells

B1: NMHC-IIBrod-Ig: fusion protein of Ig and the C-terminal fragment of NMHC-IIB, soluble form of NMHC-IIB (protein)
chain: FAQSKESEKKLKSLEAEILQLQEELASSERARRHAEQERDELADEITNSASGKSALLDEKRRLEARIAQLEEELEEEQSNMELLNDRFRKTTLQVDTLNAELAAERSAAQKSDNARQQLERQNKELKAKLQELEGAVKSKFKATISALEAKIGQLEEQLEQEAKERAAANKLVRRTEKKLKEIFMQVEDERRHADQYKEQMEKANARMKQLKRQLEEAEEEATRANASRRKLQRELDDATEANEGLSREVSTLKNRLRRGGPISFSSSRSGRRQLHLEGASLELSDDDTESKTSDVNETQPPQSE
modifications: left off: a dimerising Fc or GST; small tags and cut ends
- staining of cells expressing gB on their surface: stained
